How the values were obtained:
[1] = target: HBc protein (core protein) of hepatitis B virus genotype D (hepatitis B virus genotype D); assay: reassociation by dialysis, tested by electron microscopy, DLS, SDS-PAGE and NAGE; purified HBc dimers dialysed from dissociation buffer against PBS at +4 °C overnight; dimers to VLPs (empty capsids)
[2] = target: HBc protein (core protein) of hepatitis B virus genotype D (hepatitis B virus genotype D); assay: SEC; VLPs incubated in GuHCl- and LiCl-containing dissociation buffer, +4 °C, 16 h; debris removed; supernatant on a Superose6 or Superdex200 column in dissociation buffer; capsid to dimers, the dimer stays
[3] = target: HBc protein (core protein) of hepatitis B virus genotype F (hepatitis B virus genotype F); assay: reassociation by dialysis, tested by electron microscopy, DLS, SDS-PAGE and NAGE; purified HBc dimers dialysed from dissociation buffer against PBS at +4 °C overnight; dimers to VLPs (empty capsids)
[4] = target: HBc protein (core protein) of hepatitis B virus genotype F (hepatitis B virus genotype F); assay: SEC; VLPs incubated in GuHCl- and LiCl-containing dissociation buffer, +4 °C, 16 h; debris removed; supernatant on a Superose6 or Superdex200 column in dissociation buffer; capsid to dimers, the dimer stays
[5] = target: HBc protein (core protein) of hepatitis B virus genotype G (hepatitis B virus genotype G); assay: reassociation by dialysis, tested by electron microscopy, DLS, SDS-PAGE and NAGE; purified HBc dimers dialysed from dissociation buffer against PBS at +4 °C overnight; dimers to VLPs (empty capsids)
[6] = target: HBc protein (core protein) of hepatitis B virus genotype G (hepatitis B virus genotype G); assay: SEC; VLPs incubated in GuHCl- and LiCl-containing dissociation buffer, +4 °C, 16 h; debris removed; supernatant on a Superose6 or Superdex200 column in dissociation buffer; capsid to dimers, the dimer stays

“HBc protein (core protein) of hepatitis B virus genotype D (natural protein)” showed a Reassociated dimers (percent of dimers reassociated in VLPs) [1] of 80%, a Dimer content [2] of 30% and a percent of the treated soluble VLPs as dimers [2] of 70%. For the same substance, the stoichiometry N [2] was 2.

Work on “HBc protein (core protein) of hepatitis B virus genotype F (natural protein)” yielded a Reassociated dimers (percent of dimers reassociated in VLPs) [3] of 80%, a Dimer content [4] of 30% and a percent of the treated soluble VLPs as dimers [4] of 40%. The stoichiometry N [4] was 2.

In the case of “HBc protein (core protein) of hepatitis B virus genotype G (natural protein)”, the Reassociated dimers (percent of dimers reassociated in VLPs) [5] is reported as 90%, the Dimer content [6] is reported as 30% and the percent of the treated soluble VLPs as dimers [6] is reported as 80%. It also gave a stoichiometry N [6] of 2.

From publication PMC7912224
